Paper PMC5038921 (Journal of biomolecular screening, 2016)
Blank lines part the entries; values can stand above or below the compound they belong to.

Tests used:
[1] = target: T1, RMI core complex (RMI1 OB2 domain with RMI2) (Homo sapiens, UniProt Q96E14+Q9H9A7); experiment: ITC; format: binding
T1 sequence (Q9H9A7 473-625 limits assumed): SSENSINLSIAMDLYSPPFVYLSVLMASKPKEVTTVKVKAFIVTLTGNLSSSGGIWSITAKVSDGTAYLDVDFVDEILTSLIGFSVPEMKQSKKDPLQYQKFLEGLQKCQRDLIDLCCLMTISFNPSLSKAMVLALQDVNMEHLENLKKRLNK
T1 sequence (Q96E14 1-147): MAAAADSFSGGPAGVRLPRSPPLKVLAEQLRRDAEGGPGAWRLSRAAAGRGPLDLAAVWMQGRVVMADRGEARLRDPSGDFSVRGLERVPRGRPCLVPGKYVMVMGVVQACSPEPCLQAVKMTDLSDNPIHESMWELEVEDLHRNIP

[2] = target: RMI core complex (OB2 domain of RMI1 and the entirety of RMI2) (UniProt Q96E14); experiment: fluorescence polarisation
[3] = target: RMI core complex with a N-terminal 6X-His tagged RMI2 (UniProt Q96E14); experiment: AlphaScreen or HTRF
[4] = target: F-MM2 MM2 (Homo sapiens) (UniProt Q8IYD8); experiment: FP; settings: cited from earlier work

Kd [1]: 3400 ± 1000 nM
Compound: CCOC(=O)N1CCN(C(c2ccccn2)c2c(-c3ccccc3)n(O)c3ccccc23)CC1 (stereo not shown) [PIP-199]

IC50 [2]: 510 nM
IC50 [3]: 180 nM
Compound: MM2 peptide from FANCM (unlabeled)

Compound: RMI core complex core complex (from UniProt Q9H9A7)
Kd [4]: < 5 nM
